We go through 167 variants from the RNAGym collection of RNA variant scans (doi:10.7554/elife.80360).

The chains are these.
B1: CPEB3 Ribozyme (parent)
chain: GGGGGCCACAGCAGAAGCGUUCACGUCGCGGCCCCUGUCAGAUUCUGGUGAAUCUGCGAAUUCUGCUGU

In the data set the parent is B1. In words: self-cleavage, relative activity (ratio to wild type); higher = more cleavage; co-transcriptional.
On to C9U C22U, for which the self-cleavage is 0.403.
Turning to C9U C54A, the self-cleavage came out at 0.978.
Take C9U C54G: the self-cleavage was 0.994.
Regarding C9U G41A, the self-cleavage is 0.923.
In the case of C9U A15C, the self-cleavage stood at 0.989.
To C9U C45A belongs 1.01; to C9U C45U, 1.01.
Regarding A10C G56C, the self-cleavage amounted to 0.772.
In the case of C9U A60G it was 0.983; in that of C9U A60C, 0.303; in that of C9U C63U, 0.982.
To C9U C63A belongs 0.968; to C9U C63G, 0.88.
On to A10C G28A, for which the self-cleavage was 0.125.
Consider A10C G28U, for which the self-cleavage stood at 0.12.
In the case of C9G C66U it was 0.967.
With C9G C66G, the self-cleavage amounted to 0.905.
Regarding A10C A23C, the self-cleavage stood at 0.938.
To A10C A23U belongs 0.983; to A10C A40C, 0.378; to A10C A40U, 0.867.
Turning to A10G A40C, the self-cleavage was determined as 0.201.
As for A10G A40G, the self-cleavage amounted to 0.728.
To C9U A52U belongs 0.996.
In the case of C9U A52C it was 1.01.
For the variant C9G G37U, the self-cleavage worked out at 0.323.
Regarding A10C C12G, the self-cleavage stood at 0.659.
For A10C C12A, the self-cleavage is 0.439.
A10C C12U: the self-cleavage is 0.882.
Take C9G U62C: the self-cleavage is 0.96.
To C9G U62G belongs 0.849.
Consider C9G U62A, for which the self-cleavage came to 0.977.
In the case of C9U U46A it was 0.964; in that of C9U U46G, 1.04; in that of C9U U46C, 1.02.
In the case of C9U G28C it was 0.173; in that of C9U G28A, 0.227.
Turning to A10C G65U, the self-cleavage came to 0.655.
For the variant A10C G65A, the self-cleavage is 0.798.
In the case of A10C G65C it was 0.637.
In the case of C9U U20A it was 0.148.
To C9U U20C belongs 0.186; to A10C U49A, 1.02.
Regarding A10C U49C, the self-cleavage was determined as 1.04.
As for C9U C27U, the self-cleavage came out at 0.788.
In the case of C9U C27A, the self-cleavage came out at 0.891.
Consider C9U U53G, for which the self-cleavage is 0.984.
To C9U U53A belongs 0.961; to C9U G47A, 1.06; to C9U C32A, 1.02.
As for C9U C32G, the self-cleavage worked out at 0.838.
Consider C9U G17A, for which the self-cleavage amounted to 0.817.
To C9G C39A belongs 0.912.
Consider C9G C39G, for which the self-cleavage was 0.981.
As to C9G C39U, the self-cleavage is 0.878.
With C9U A13C, the self-cleavage turned out to be 0.925.
For C9U A13U, the self-cleavage stood at 0.966.
Regarding C9G G48C, the self-cleavage was 0.99.
As to C9G G48A, the self-cleavage was 1.01.
As for A10G A16U, the self-cleavage was 0.452.
With A10G A16G, the self-cleavage amounted to 0.894.
In the case of A10G A16C, the self-cleavage stood at 0.145.
To C9G C18A belongs 0.256.
Consider C9G C18G, for which the self-cleavage is 0.2.
As for A10C C39G, the self-cleavage was determined as 0.987.
Turning to A10C C39A, the self-cleavage amounted to 0.861.
In the case of A10C G31U, the self-cleavage was determined as 0.913.
On to A10C G31A, for which the self-cleavage was 0.968.
For C9U U69A, the self-cleavage was found to be 1.03.
As for C9U U69G, the self-cleavage is 1.07.
With C9G G47C, the self-cleavage was found to be 1.01.
For the variant C9G C35U, the self-cleavage amounted to 0.964.
As to C9G C35G, the self-cleavage was 0.758.
Consider A10C U46G, for which the self-cleavage was 0.953.
For A10C U46A, the self-cleavage was 1.03.
In the case of A10G A42G it was 0.636; in that of A10C C63U, 1.02.
Turning to A10C C63A, the self-cleavage turned out to be 0.676.
With C9U U64C, the self-cleavage amounted to 0.999.
In the case of C9U U64A, the self-cleavage came out at 1.04.
In the case of C9U U64G it was 0.981.
Regarding C9G G19A, the self-cleavage was found to be 0.106.
In the case of C9U A40U it was 0.915.
As to C9U A40G, the self-cleavage turned out to be 1.03.
Turning to A10G A23U, the self-cleavage worked out at 0.748.
For the variant A10G A23G, the self-cleavage was found to be 0.832.
For A10C G68A, the self-cleavage came out at 1.03.
For the variant A10C G68C, the self-cleavage came to 1.04.
In the case of A10C G68U, the self-cleavage worked out at 1.03.
As for A10C U64G, the self-cleavage is 0.804.
To C9U G19U belongs 0.855.
As for C9U G19A, the self-cleavage is 0.249.
In the case of C9G C54A, the self-cleavage was 0.931.
Regarding C9G C54U, the self-cleavage came out at 1.05.
As for C9G U20A, the self-cleavage was 0.0617.
Regarding C9G U20G, the self-cleavage was found to be 0.212.
On to A10C G30A, for which the self-cleavage amounted to 0.994.
With A10C G30C, the self-cleavage stood at 0.923.
Regarding A10C G30U, the self-cleavage turned out to be 0.753.
Take C9G C27U: the self-cleavage stood at 0.888.
To A10C C29A belongs 0.596; to A10C C29G, 0.165.
Turning to C9G G65U, the self-cleavage was determined as 0.65.
Take C9G G65A: the self-cleavage came to 0.968.
For the variant C9G G65C, the self-cleavage worked out at 0.585.
Regarding C9U U36G, the self-cleavage is 0.214.
As to C9U C18G, the self-cleavage was determined as 0.283.
In the case of C9U C18A, the self-cleavage is 0.355.
Turning to C9U C18U, the self-cleavage worked out at 0.927.
Turning to A10C U53A, the self-cleavage stood at 0.976.
For A10C U53C, the self-cleavage was 0.863.
In the case of C9U C57A it was 0.32.
For C9U C57U, the self-cleavage worked out at 0.38.
Take C9U A51G: the self-cleavage was found to be 1.02.
Take C9U A51C: the self-cleavage is 1.03.
To A10C C34A belongs 0.981; to A10C C34U, 0.986; to A10C A13G, 0.911.
In the case of A10C A13C it was 0.638.
On to A10C A13U, for which the self-cleavage was found to be 0.484.
With C9G G17C, the self-cleavage is 0.176.
In the case of C9G U69A it was 1.04; in that of C9G U69G, 1.05.
To A10C C27U belongs 0.508; to A10C C27A, 0.666; to C9G U46A, 1.03.
Regarding A10C U44A, the self-cleavage is 0.959.
Take A10C U44C: the self-cleavage was 0.92.
Take A10C C33A: the self-cleavage was 0.965.
Regarding A10C C33G, the self-cleavage came to 0.988.
Consider C9U G50C, for which the self-cleavage came out at 1.02.
In the case of C9U G50U it was 1.
For A10C U62G, the self-cleavage came out at 0.772.
For A10C U62C, the self-cleavage turned out to be 0.72.
Regarding C9U G25C, the self-cleavage came out at 0.146.
C9U G25U: the self-cleavage was 0.192.
Regarding C9G U38A, the self-cleavage was determined as 0.988.
For the variant C9G U38G, the self-cleavage is 0.343.
To C9G C63A belongs 0.909; to C9G C63U, 0.973; to C9U A10C, 1.06.
For the variant C9U A10G, the self-cleavage was 1.04.
Consider C9U A10U, for which the self-cleavage is 0.987.
With C9U U38C, the self-cleavage is 1.02.
To C9U U38A belongs 0.931; to C9U U38G, 0.306; to C9U U26C, 0.999.
In the case of C9U G37A it was 0.364; in that of A10C G48A, 1.02; in that of C9U U49C, 1.01.
Take C9U U49A: the self-cleavage is 0.99.
With C9U U49G, the self-cleavage worked out at 0.957.
In the case of C9G G41C it was 0.964; in that of C9G G41U, 0.888; in that of C9G U61A, 1.01.
Consider C9G U61C, for which the self-cleavage was 0.83.
Consider C9U G58C, for which the self-cleavage is 1.02.
In the case of A10C G47U, the self-cleavage came out at 1.01.
As for A10C G47A, the self-cleavage stood at 1.04.
To A10C G14A belongs 0.363.
Take A10C G14U: the self-cleavage came to 0.411.
Regarding C9G U26A, the self-cleavage amounted to 0.912.
In the case of C9G U26G it was 0.93.
Regarding C9G U26C, the self-cleavage came to 0.964.
With C9U C29G, the self-cleavage worked out at 0.923.
For the variant C9U C29A, the self-cleavage worked out at 0.922.
A10C A52G: the self-cleavage came to 0.988.
